From PMC9808565

Biological target: human ACE2 protein (hACE2), recombinant, His-tagged, Met1-Ser740 (human) (UniProt Q9BYF1)
Experiment: ITC

UniProt Q9BYF1, sequence (Q9BYF1 18-740): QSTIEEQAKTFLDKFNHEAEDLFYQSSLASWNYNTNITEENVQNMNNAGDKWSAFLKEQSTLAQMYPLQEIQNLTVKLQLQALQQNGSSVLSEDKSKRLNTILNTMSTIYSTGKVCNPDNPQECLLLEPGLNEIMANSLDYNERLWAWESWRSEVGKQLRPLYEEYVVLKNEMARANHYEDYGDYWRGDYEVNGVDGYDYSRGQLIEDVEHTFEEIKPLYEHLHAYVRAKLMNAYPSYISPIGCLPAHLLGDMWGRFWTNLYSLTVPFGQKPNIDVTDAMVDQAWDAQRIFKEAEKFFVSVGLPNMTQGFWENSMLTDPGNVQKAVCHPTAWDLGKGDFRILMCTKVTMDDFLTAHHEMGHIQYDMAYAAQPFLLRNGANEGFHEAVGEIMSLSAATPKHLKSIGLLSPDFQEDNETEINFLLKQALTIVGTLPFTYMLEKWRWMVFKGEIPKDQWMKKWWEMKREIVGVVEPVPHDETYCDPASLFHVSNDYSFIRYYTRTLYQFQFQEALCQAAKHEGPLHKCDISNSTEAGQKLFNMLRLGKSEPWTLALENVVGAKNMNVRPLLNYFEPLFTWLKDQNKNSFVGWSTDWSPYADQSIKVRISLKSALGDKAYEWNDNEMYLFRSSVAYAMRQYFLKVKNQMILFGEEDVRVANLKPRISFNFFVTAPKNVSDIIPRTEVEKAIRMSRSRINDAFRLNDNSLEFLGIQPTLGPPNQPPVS

“SARS-CoV-1 spike RBD (RBD^CoV1), Arg306-Phe527, His-tagged (domain or fragment)” showed a Kd of 146 nM, a dH of -10.5 kcal/mol and a stoichiometry N of 1.03.
